Assay results reported in patent US20140161804A1 (AbbVie / Abbott, published 2014).

B1: hMAK199-1-h10F7-M10.8 QL DVD-Ig (bispecific antibody, human IgG1, kappa, L234A L235A)
heavy: EVQLVQSGAEVKKPGASVKVSCKASGYTFANYGIIWVRQAPGQGLEWMGWINTYTGKPTYAQKFQGRVTMTTDTSTSTAYMELSSLRSEDTAVYYCARKLFTTMDVTDNAMDYWGQGTTVTVSSGGGGSGGGGSEVQLVQSGAEVKKPGSSVKVSCKASGYTFDDYEIHWVRQAPGQGLEWIGVNDPESGGTFYNQKFDGRATLTADKSTSTAYMELSSLRSEDTAVYYCTRYDKWDSFYGMDYWGQGTTVTVSSASTKGPSVFPLAPSSKSTSGGTAALGCLVKDYFPEPVTVSWNSGALTSGVHTFPAVLQSSGLYSLSSVVTVPSSSLGTQTYICNVNHKPSNTKVDKKVEPKSCDKTHTCPPCPAPEAAGGPSVFLFPPKPKDQLMISRTPEVTCVVVDVSHEDPEVKFNWYVDGVEVHNAKTKPREEQYNSTYRVVSVLTVLHQDWLNGKEYKCKVSNKALPAPIEKTISKAKGQPREPQVYTLPPSREEMTKNQVSLTCLVKGFYPSDIAVEWESNGQPENNYKTTPPVLDSDGSFFLYSKLTVDKSRWQQGNVFSCSVLHEALHNHYTQKSLSLSPGK
light: DIQMTQSPSSLSASVGDRVTITCRASQDISQYLNWYQQKPGKAPKLLIYYTSRLQSGVPSRFSGSGSGTDFTLTISSLQPEDFATYFCQQGNTWPPTFGQGTKLEIKRGGSGGGGSGDIQMTQSPSSLSASVGDRVTITCSASSGSISYIDWFQQKPGKAPKRLIYATFELASGVPSRFSGSGSGTDFTLTISSLQPEDFATYYCHQLGSYPDTFGQGTKLEIKRTVAAPSVFIFPPSDEQLKSGTASVVCLLNNFYPREAKVQWKVDNALQSGNSQESVTEQDSKDSTYSLSSTLTLSKADYEKHKVYACEVTHQGLSSPVTKSFNRGEC
notes: DVD-Ig; IgG1 (234,235) mut with QL mutations, kappa; GS10 linkers
B2: hMAK199-1-h10F7-M11.8 YTE DVD-Ig (bispecific antibody, human IgG1, kappa, L234A L235A)
heavy: EVQLVQSGAEVKKPGASVKVSCKASGYTFANYGIIWVRQAPGQGLEWMGWINTYTGKPTYAQKFQGRVTMTTDTSTSTAYMELSSLRSEDTAVYYCARKLFTTMDVTDNAMDYWGQGTTVTVSSGGGGSGGGGSEVQLVQSGAEVKKPGSSVKVSCKASGYTFTDYEIHWVRQAPGQGLEWMGVNDPESGGTFYNQKFDGRVTLTADESTSTAYMELSSLRSEDTAVYYCTRYSKWDSFDGMDYWGQGTTVTVSSASTKGPSVFPLAPSSKSTSGGTAALGCLVKDYFPEPVTVSWNSGALTSGVHTFPAVLQSSGLYSLSSVVTVPSSSLGTQTYICNVNHKPSNTKVDKKVEPKSCDKTHTCPPCPAPEAAGGPSVFLFPPKPKDTLYITREPEVTCVVVDVSHEDPEVKFNWYVDGVEVHNAKTKPREEQYNSTYRVVSVLTVLHQDWLNGKEYKCKVSNKALPAPIEKTISKAKGQPREPQVYTLPPSREEMTKNQVSLTCLVKGFYPSDIAVEWESNGQPENNYKTTPPVLDSDGSFFLYSKLTVDKSRWQQGNVFSCSVMHEALHNHYTQKSLSLSPGK
light: DIQMTQSPSSLSASVGDRVTITCRASQDISQYLNWYQQKPGKAPKLLIYYTSRLQSGVPSRFSGSGSGTDFTLTISSLQPEDFATYFCQQGNTWPPTFGQGTKLEIKRGGSGGGGSGDIQMTQSPSSLSASVGDRVTITCRASSGIISYIDWFQQKPGKAPKRLIYATFDLASGVPSRFSGSGSGTDYTLTISSLQPEDFATYYCRQVGSYPETFGQGTKLEIKRTVAAPSVFIFPPSDEQLKSGTASVVCLLNNFYPREAKVQWKVDNALQSGNSQESVTEQDSKDSTYSLSSTLTLSKADYEKHKVYACEVTHQGLSSPVTKSFNRGEC
notes: DVD-Ig; IgG1 (234,235) mut with YTE mutations, kappa; GS10 linkers
B3: h10F7-M10-hMAk195-24.8 DVD-Ig (bispecific antibody, human IgG1, kappa, L234A L235A)
heavy: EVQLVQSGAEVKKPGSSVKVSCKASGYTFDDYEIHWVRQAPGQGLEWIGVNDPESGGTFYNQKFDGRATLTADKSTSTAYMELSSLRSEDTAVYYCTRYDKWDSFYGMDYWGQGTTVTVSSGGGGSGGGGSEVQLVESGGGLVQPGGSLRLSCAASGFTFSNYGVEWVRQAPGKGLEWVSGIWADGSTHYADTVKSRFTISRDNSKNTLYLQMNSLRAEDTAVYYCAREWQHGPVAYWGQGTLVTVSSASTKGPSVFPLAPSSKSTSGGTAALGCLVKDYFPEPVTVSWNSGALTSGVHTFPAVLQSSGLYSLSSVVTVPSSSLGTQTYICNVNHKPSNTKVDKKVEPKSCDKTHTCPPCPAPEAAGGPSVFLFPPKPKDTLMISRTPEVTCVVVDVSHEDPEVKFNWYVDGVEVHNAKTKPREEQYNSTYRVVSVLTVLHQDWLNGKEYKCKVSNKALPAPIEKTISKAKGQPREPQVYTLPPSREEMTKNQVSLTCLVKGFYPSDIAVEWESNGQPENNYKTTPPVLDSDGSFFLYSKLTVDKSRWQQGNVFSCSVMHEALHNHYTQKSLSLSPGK
light: DIQMTQSPSSLSASVGDRVTITCSASSGSISYIDWFQQKPGKAPKRLIYATFELASGVPSRFSGSGSGTDFTLTISSLQPEDFATYYCHQLGSYPDTFGQGTKLEIKRGGSGGGGSGDIQMTQSPSSLSASVGDRVTITCKASQLVSSAVAWYQQKPGKAPKLLIYWASTLHTGVPSRFSGSGSGTDFTLTISSLQPEDFATYYCQQHYRTPFTFGQGTKLEIKRTVAAPSVFIFPPSDEQLKSGTASVVCLLNNFYPREAKVQWKVDNALQSGNSQESVTEQDSKDSTYSLSSTLTLSKADYEKHKVYACEVTHQGLSSPVTKSFNRGEC
B4: IL17-h10F7M11 hIgG1/K mut (antibody, V domains shown)
VH: EVQLVQSGAEVKKPGSSVKVSCKASGYTFTDYEIHWVRQAPGQGLEWMGVNDPESGGTFYNQKFDGRVTLTADESTSTAYMELSSLRSEDTAVYYCTRYSKWDSFDGMDYWGQGTTVTVSS
VL: DIQMTQSPSSLSASVGDRVTITCRASSGIISYIDWFQQKPGKAPKRLIYATFDLASGVPSRFSGSGSGTDYTLTISSLQPEDFATYYCRQVGSYPETFGQGTKLEIK
notes: Full length human IgG1/kappa, IgG1 mut(234,235); also called J439M1S3R5#11; PR-1263009
B5: IL17-h10F7M10 hIgG1/K mut (antibody, V domains shown)
VH: EVQLVQSGAEVKKPGSSVKVSCKASGYTFDDYEIHWVRQAPGQGLEWIGVNDPESGGTFYNQKFDGRATLTADKSTSTAYMELSSLRSEDTAVYYCTRYDKWDSFYGMDYWGQGTTVTVSS
VL: DIQMTQSPSSLSASVGDRVTITCSASSGSISYIDWFQQKPGKAPKRLIYATFELASGVPSRFSGSGSGTDFTLTISSLQPEDFATYYCHQLGSYPDTFGQGTKLEIK
notes: Full length human IgG1/kappa, IgG1 mut(234,235) (HC plasmid pHybE-hCg1,z,non-a,mut(234,235); LC pHybE-hCk); also called J439M1S3R5#10; PR-1262986
B6: IL17-h10F7M-A11 hIgG1/K mut (antibody, V domains shown)
VH: EVQLVQSGAEVKKPGSSVKVSCKASGYTFTDYEIHWVRQAPGQGLEWIGVNDPESGGTFYNQKFDGRVTLSADESTSTAYMELSSLRSEDTAVYYCTRYDKYWSFEGMDYWGQGTTVTVSS
VL: DIQMTQSPSSLSASVGDRVTITCRASSGIISYIDWFQQKPGKAPKRLIYATFDLASGVPSRFSGSGSGTDYTLTISSLQPEDFATYYCRQVGSYPETFGQGTKLEIK
notes: Full length human IgG1/kappa, IgG1 mut(234,235); also called h10F7-A11; J439M1S2(H)3 #A11
B7: IL17-h10F7M-B13 hIgG1/K mut (antibody, V domains shown)
VH: EVQLVQSGAEVKKPGSSVKVSCKASGYTFSDYEIHWVRQAPGQGLEWMGVNDPESGGTFYNQKFDGRVTLTADESTSTAYMELSSLRSEDTAVYYCTRYDKYWSFEGMDYWGQGTTVTVSS
VL: DIQMTQSPSSLSASVGDRVTITCRASSGIISYIDWFQQKPGKAPKRLIYATFDLASGVPSRFSGSGSGTDYTLTISSLQPEDFATYYCRQVGSYPETFGQGTKLEIK
notes: Full length human IgG1/kappa, IgG1 mut(234,235); also called h10F7-B13; J439M1S2(H)3 #B13
B8: IL17-h10F7M-A16 hIgG1/K mut (antibody, V domains shown)
VH: EVQLVQSGAEVKKPGSSVKVSCKASGYTFSDYEIHWVRQAPGQGLEWMGVNDPESGGTFYNQKFDGRVTLTADESTSTAYMELSSLRSEDTAVYYCTRYDKWYSFEGMDIWGQGTTVTVSS
VL: DIQMTQSPSSLSASVGDRVTITCSASQGIRSYIDWFQQKPGKSPKRLIYATFDLASGVPSRFSGSGSGTDYTLTISSLQPEDFATYYCRQVGNYPGTFGQGTKLEIK
notes: Full length human IgG1/kappa, IgG1 mut(234,235); also called h10F7-A16; J439M1S2(H)3 #A16

Assays:
[1] = target: T1, Human TNF (human, UniProt P01375 77-233); assay: ELISA, captured DVD-Ig, biotin-human TNF titrated
T1 construct: Biotinylated in the ELISA; purified recombinant protein in SPR; also called h TNF; huTNF
T1 sequence (P01375 77-233 limits assumed): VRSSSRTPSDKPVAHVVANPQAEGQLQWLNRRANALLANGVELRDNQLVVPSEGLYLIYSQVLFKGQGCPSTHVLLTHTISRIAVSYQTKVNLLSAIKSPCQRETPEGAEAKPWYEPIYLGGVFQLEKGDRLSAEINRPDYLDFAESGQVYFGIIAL
Protocol: (§1) The following protocol is used to characterize the binding of TNF/IL-17 DVD-Ig proteins to human TNF and IL-17 by enzyme-linked immunosorbent assay (ELISA). An ELISA plate was coated with 50 μl per well of goat anti mouse IgG-Fc at 2 μg/ml, overnight at 4° C. The plate was washed 3 times with PBS/Tween. 50 μl Mab diluted to 1 μg/ml in PBS/0.1% BSA was added to appropriate wells and incubated for 1 hour at room temperature (RT). The plate was washed 3 times with PBS/Tween. 50 μl of serial diluted biotin-human TNF or IL-17 was added to appropriate wells and incubated for 1 hour at RT. The plate was washed 3 times with PBS/Tween. 50 μl of streptavidin-HRP diluted 1:10,000 in PBS/0.1% BSA was added to appropriate wells and incubated for 1 hour at RT. The plate was washed 3 times with PBS/Tween. 50 μl of TMB was added to appropriate wells and the reaction allowed to proceed for 1 minute. The reaction was stopped with 50 μl/well 2N H₂SO₄ and the absorbance read at 450 nm.

[2] = target: T2, Human IL-17A (human, UniProt Q16552 20-155, limits assumed); assay: ELISA, captured DVD-Ig, biotin-human IL-17 titrated
T2 construct: Biotinylated in the ELISAs; purified recombinant protein in SPR; also called hIL17A; hIL-17
T2 sequence (Q16552 20-155 limits assumed): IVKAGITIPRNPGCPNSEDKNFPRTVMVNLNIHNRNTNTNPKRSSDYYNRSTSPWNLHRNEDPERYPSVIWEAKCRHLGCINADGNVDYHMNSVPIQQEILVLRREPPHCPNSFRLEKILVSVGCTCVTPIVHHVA
Protocol: as §1

[3] = target: T1, Human TNF; assay: cell-based or functional assay
[4] = target: T2, Human IL-17A; assay: ELISA, captured antibody, biotin-human IL-17 titrated
Protocol: as §1, with “IL-17 antibodies” for “TNF/IL-17 DVD-Ig proteins”, “human” for “human TNF and”, “biotin-human” for “biotin-human TNF or”

[5] = target: T2, Human IL-17A; assay: SPR (Biacore T200), antibody captured by anti-human IgG Fc, antigen in solution
Protocol: (§2) The binding of antibodies to purified recombinant IL-17 proteins was determined by surface plasmon resonance-based measurements with a Biacore® T200 instrument (GE Healthcare) using running HBS-EP (10 mM HEPES [pH 7.4], 150 mM NaCl, 3 mM EDTA, and 0.005% surfactant P20) containing 0.1 mg/ml BSA at 25° C. All chemicals were obtained from Biacore® AB (GE Healthcare) or otherwise from a source as described in the text. Approximately 5000 RU of goat anti-human IgG (Fcg) fragment specific polyclonal antibody (Pierce Biotechnology Inc, Rockford, Ill.) diluted in 10 mM sodium acetate (pH 4.5) was directly immobilized across a CM5 research grade biosensor chip using a standard amine coupling kit according to manufacturer's instructions and procedures at 25 μg/ml. Unreacted moieties on the biosensor surface were blocked with ethanolamine. Modified carboxymethyl dextran surface in flowcell 2, 3 and 4 were used as a reaction surface. Modified carboxymethyl dextran with Goat IgG in flow cell 1 was used as the reference surface. For kinetic analysis, rate equations derived from the 1:1 Langmuir binding model were fitted simultaneously to association and dissociation phases of all six injections (using global fit analysis with local float for Rmax) with the use of Biacore T200 Evaluation software v.1.0. Purified antibodies were diluted in HEPES-buffered saline for capture across goat anti-human IgG specific reaction surfaces. Antibodies to be captured as ligand (1-5 μg/ml) were injected over reaction matrices at a flow rate of 50 μl/minute. Association phase was monitored for 5 minute, while dissociation phase was monitored for 10-60 min to accommodate for slower off-rates. The association and dissociation rate constants, ka (unit M-1 s-1) and kd (unit s-1) were determined under a continuous flow rate of 50 μl/minute. Rate constants were derived by making kinetic binding measurements at six different antigen concentrations ranging from 0.78 nM to 100 nM, depending on the species of IL-17 tested. The association ka, dissociation rate kd and equilibrium dissociation constant KD were calculated with the use of the same Biacore T200 Evaluation software v.1.0.

[6] = target: T3, Cynomolgus monkey IL-17A (cynomolgus monkey, UniProt A0A2K5TTB0 24-155); assay: as above
T3 construct: also called Cyno IL-17AA; Cyno IL17AA
T3 sequence (A0A2K5TTB0 entry or part of it): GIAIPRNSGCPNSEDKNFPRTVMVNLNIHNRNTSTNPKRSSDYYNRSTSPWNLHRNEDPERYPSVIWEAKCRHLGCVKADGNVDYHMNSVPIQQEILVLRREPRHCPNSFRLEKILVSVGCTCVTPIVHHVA
Protocol: as §2

Row | Binder | EC50 [1] | EC50 [2] | Potency IC50 (nM), L929 bioassay, human TNF [3] | EC50 [4] | Kd [5] | koff [5] | kon [5] | Kd [6] | koff [6] | kon [6]
1 | B1 | 0.183 nM | 0.063 nM | – | – | – | – | – | – | – | –
2 | B2 | 0.1 nM | 0.05 nM | – | – | – | – | – | – | – | –
3 | B3 | – | – | 2.56 nM | – | – | – | – | – | – | –
4 | B4 | – | – | – | 0.04 nM | 0.00159 nM | 7.24e-06 s⁻¹ | 4.53e+06 M⁻¹ s⁻¹ | 0.00086 nM | 3.88e-06 s⁻¹ | 4.5e+06 M⁻¹ s⁻¹
5 | B5 | – | – | – | 0.03 nM | 0.00153 nM | 6.8e-06 s⁻¹ | 4.45e+06 M⁻¹ s⁻¹ | 0.00106 nM | 4.4e-06 s⁻¹ | 4.14e+06 M⁻¹ s⁻¹
6 | B6 | – | – | – | 0.04 nM | 0.0021 nM | 7.68e-06 s⁻¹ | 3.64e+06 M⁻¹ s⁻¹ | – | – | –
7 | B7 | – | – | – | 0.06 nM | 0.00256 nM | 6.88e-06 s⁻¹ | 2.68e+06 M⁻¹ s⁻¹ | – | – | –
8 | B8 | – | – | – | 0.07 nM | 0.00151 nM | 4.52e-06 s⁻¹ | 2.99e+06 M⁻¹ s⁻¹ | – | – | –
